How the values were obtained:
[1] = biological target: Acanthamoeba castellanii actin (Acanthamoeba castellanii)
[2] = biological target: Acanthamoeba castellanii actin (Acanthamoeba castellanii); remark: listed apart in the source

run length, mean of three independent samples, TIRF microscopy with profilin [1]: 24.1 μm
median run length (length of dim filaments after 5 min), TIRF microscopy with profilin; said to be an underestimate [2]: 24 μm
Substance: Fhod-B (C-terminal half: FH1 and FH2 domains and the Fhod-B tail) (domain or fragment)

Reference: PMC10797183
